B1: Nectin4 peptide 35 (GTSDVVTVV) (peptide)
peptide: GTSDVVTVV
notes: Synthetic nonapeptide of human nectin4; the range counts on nectin4
B2: Nectin4 peptide 347 (SASVVVVGV) (peptide)
peptide: SASVVVVGV
notes: as for B1
B3: Nectin4 peptide 355 (VIAALLFCL) (peptide)
peptide: VIAALLFCL
notes: as for B1
B4: Nectin4 peptide 345 (LVSASVVVV) (peptide)
peptide: LVSASVVVV
notes: as for B1
B5: reference peptide 517 (MAGE-A10), GLYDGMEHL (peptide)
peptide: GLYDGMEHL
notes: Control peptide from the literature, tested here
B6: reference peptide 515 (MAGE-A3), KVAELVHFL (peptide)
peptide: KVAELVHFL
notes: as for B5
B7: Nectin4 peptide 358 (ALLFCLLVV) (peptide)
peptide: ALLFCLLVV
notes: as for B1
B8: Nectin4 peptide 238 (HILHVSFLA) (peptide)
peptide: HILHVSFLA
notes: Synthetic nonapeptide of human nectin4; the number is the start position in nectin4 (the range counts on nectin4)
B9: reference peptide 503 (PR3; Proteinase3), NLSASVATV (peptide)
peptide: NLSASVATV
notes: as for B5
B10: Nectin4 peptide 19 (LLLLASFTG) (peptide)
peptide: LLLLASFTG
notes: as for B1
B11: Nectin4 peptide 266 (AMLKCLSEG) (peptide)
peptide: AMLKCLSEG
notes: as for B1
B12: Nectin4 peptide 354 (GVIAALLFC) (peptide)
peptide: GVIAALLFC
notes: as for B1
B13: Nectin4 peptide 244 (FLAEASVRG) (peptide)
peptide: FLAEASVRG
notes: as for B1
B14: Nectin4 peptide 203 (AVTSEFHLV) (peptide)
peptide: AVTSEFHLV
notes: as for B1
B15: Nectin4 peptide 137 (FQARLRLRV) (peptide)
peptide: FQARLRLRV
notes: as for B1
B16: Nectin4 peptide 443 (RSYSTLTTV) (peptide)
peptide: RSYSTLTTV
notes: as for B1
B17: Nectin4 peptide 359 (LLFCLLVVV) (peptide)
peptide: LLFCLLVVV
notes: as for B1
B18: reference peptide 519 (Tyrosinase), YMDGTMSQV (peptide)
peptide: YMDGTMSQV
notes: Control peptide from the literature, tested here; also called tyrosinase peptide
B19: Nectin4 peptide 239 (ILHVSFLAE) (peptide)
peptide: ILHVSFLAE
notes: as for B1
B20: antigen peptide N4-145 (VLVPPLPSL) (peptide)
peptide: VLVPPLPSL
notes: as for B1
B21: reference peptide 520 (GnTV), VLPDVFIRC (peptide)
peptide: VLPDVFIRC
notes: Control peptide from the literature, tested here; also called GnTV peptide
B22: Nectin4 peptide 80 (ALLHSKYGL) (peptide)
peptide: ALLHSKYGL
notes: Synthetic nonapeptide of human nectin4; the range counts on nectin4; also called Pep N° 80
B23: Nectin4 peptide 357 (AALLFCLLV) (peptide)
peptide: AALLFCLLV
notes: as for B1
B24: Nectin4 peptide 255 (DQNLWHIGR) (peptide)
peptide: DQNLWHIGR
notes: as for B1
B25: Nectin4 peptide 215 (SMNGQPLTC) (peptide)
peptide: SMNGQPLTC
notes: as for B1
B26: Nectin4 peptide 351 (VVVGVIAAL) (peptide)
peptide: VVVGVIAAL
notes: as for B1
B27: Nectin4 peptide 21 (LLASFTGRC) (peptide)
peptide: LLASFTGRC
notes: Synthetic nonapeptide of human nectin4; the range counts on nectin4; also called Pep N° 21

What was measured:
[1] = molecular target: T1, HLA-A*0201 on the CEM.T2 cell line (T2) (human); test: T2 cell dissociation assay with Brefeldin A, flow cytometry
T1 construct: whole, on cells
Experimental: (§1) After 3 washes, cells were fixed in PBS supplemented with 2% paraformaldehyde and analyzed by FACS (FACScan, BD Bioscience). The percentage of peptide binding was calculated as follows:
(§2) After 3 washes, T2 cells were incubated for 3 h in serum-free RPMI at 37° C. Binding was then measured by FACS and after 4 h incubation. Percentage of Residual Binding (% RB) was calculated as follows:

[2] = molecular target: T2, HLA-A*0201 HLA class I MHC monomer (iTopia Epitope Discovery System, coated on plate) (human); test: iTopia EDS multiparametric score (binding, off-rate, affinity)
T2 construct: Placeholder peptide stripped; also called HLA-A2; MHC class I monomer
Text: (§3) Microtiter 96 well plates containing HLA class I MHC monomer loaded with the human β2-microglobulin and a “placeholder” peptide were used to evaluate peptide binding, affinity, and off-rate.
The iTopia system software was used to include, binding, off-rate (T1/2 value) and affinity (ED50 value) data collected for each peptide, in a multiparametric score called iScore.

[3] = molecular target: T2, HLA-A*0201 HLA class I MHC monomer …; test: iTopia EDS off-rate assay at 37 C; time to 50% complex dissociation
Text: as §3
(§4) This assay evaluates the dissociation rate of “binder” peptides as a function of time.

[4] = molecular target: T2, HLA-A*0201 HLA class I MHC monomer …; test: iTopia EDS affinity assay; peptide titration, printed as Affinity (ED50)
[5] = molecular target: T2, HLA-A*0201 HLA class I MHC monomer …; test: iTopia EDS peptide binding assay on plate-coated MHC monomer; % of positive control peptide
[6] = molecular target: T1, HLA-A*0201 on the CEM.T2 cell line (T2); test: T2 cell HLA-A*0201 stabilization, 100 µM peptide, flow cytometry; % of HBV positive control
Experimental: as §1

[7] = molecular target: T2, HLA-A*0201 HLA class I MHC monomer …; test: overall rank from iTopia EDS and CEM T2 assays on HLA-A*0201
[8] = molecular target: T2, HLA-A*0201 HLA class I MHC monomer …; test: iTopia EDS off-rate assay
Experimental: as §4
The relative stability of each complex was evaluated for a period of 8 h as described in material and methods. Off-rate stability was determined by measuring the dissociation time of the complex (t1/2).

[9] = molecular target: T2, HLA-A*0201 HLA class I MHC monomer …; test: iTopia EDS affinity assay; peptide titration (ED50)
[10] = molecular target: T1, HLA-A*0201 on the CEM.T2 cell line (T2); test: T2 cell HLA-A*0201 stabilization and dissociation, flow cytometry
Experimental: as §1, §2

Binder	CEM.T2 % Residual Binding [1]	iScore [2]	T½ Value [3]	EC50 [4]	% Binding [5]	CEM.T2 % Binding [6]	RANK F-Score [7]	t1/2 [8]	EC50 [9]	binding score [10]
B1	0%	0.539	2.9 h	300 nM	63%	60%				
B2	0%	0.708	3.7 h	200 nM	64%	40%				
B3	24%	0.888	5.2 h	30 nM	59%	18%				
B4	0%	0.626	2.3 h	60 nM	51%	11%				
B5							8			
B6							10			
B7	26%	0.71	6.1 h	200 nM	53%	26%				
B8	66%	1.43	6.7 h	60 nM	87%	37%	7			
B9							9			
B10	0%	0.659	2.1 h	60 nM	75%	17%				
B11	39%	0.667	6.8 h	700 nM	74%	31%				
B12	0%	0.845	6.2 h	90 nM	61%	10%				
B13	0%	0.533	2.8 h	700 nM	78%	12%				
B14	0%	0.533	3.5 h	400 nM	64%	48%				
B15	72%	0.66	7.3 h		69%	30%				
B16	0%	0.521	2.4 h	300 nM	68%	37%				
B17	23%	0.674	7.4 h	500 nM	67%	7%				
B18							3			
B19	0%	0.51	2.3 h	200 nM	61%	10%				
B20	54%	0.783	7.4 h	500 nM	67%	76%	6	> 6 h	~100 nM	> 50 % of positive control
B21							1			
B22	86%	0.815	7.8 h	1000 nM	87%	53%	4	> 6 h	~100 nM	> 50 % of positive control
B23	18%	0.619	3.8 h	100 nM	56%	15%				
B24	0%	0.539	5.4 h	500 nM	62%	6%				
B25	0%	0.689	6.8 h	700 nM	81%	21%				
B26	50%	0.784	3.4 h	30 nM	58%	82%	5			> 50 % of positive control
B27	86%	0.727	6 h	600 nM	91%	44%	11	> 6 h	~100 nM	
